Assay results published in publication PMC11587196 (Cell reports, 2024).
Each block holds one binder with its values, some of them ahead of it.

Legend:
Experiment in all cases: SPR
[1] = molecular target: IL-1 receptor accessory protein (IL-1RAcP) ectodomain (Homo sapiens (Human)., UniProt Q9NPH3, glycosylated (seven putative glycosylation sites))
[2] = molecular target: IL-1RAcP domain 3 (Homo sapiens, UniProt Q9NPH3)
[3] = molecular target: IL-1RAcP domain 1/2 (Homo sapiens, UniProt Q9NPH3)
[4] = molecular target: Fc-fused IL-1RAcP R286A (Homo sapiens, UniProt Q9NPH3, R286A)
Chain of Fc-fused IL-1RAcP R286A (Q9NPH3 21-367 R306A): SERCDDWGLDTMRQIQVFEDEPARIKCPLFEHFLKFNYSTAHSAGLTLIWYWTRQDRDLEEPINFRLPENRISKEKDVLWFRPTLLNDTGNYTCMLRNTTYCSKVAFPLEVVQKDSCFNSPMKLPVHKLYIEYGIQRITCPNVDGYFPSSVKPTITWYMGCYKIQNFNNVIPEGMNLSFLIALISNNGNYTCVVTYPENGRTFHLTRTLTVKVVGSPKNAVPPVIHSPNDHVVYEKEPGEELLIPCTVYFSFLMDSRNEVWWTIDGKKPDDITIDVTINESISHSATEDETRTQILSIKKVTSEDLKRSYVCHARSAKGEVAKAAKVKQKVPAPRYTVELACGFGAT

[5] = molecular target: Fc-fused IL-1RAcP H226A (Homo sapiens, UniProt Q9NPH3, H226A)
Chain of Fc-fused IL-1RAcP H226A (Q9NPH3 21-367 H246A): as the sequence (Q9NPH3 21-367 R306A) above, with H226A, A286R counted along it

[6] = molecular target: Fc-fused IL-1RAcP V224A (Homo sapiens, UniProt Q9NPH3, V224A)
Chain of Fc-fused IL-1RAcP V224A (Q9NPH3 21-367 V244A): as the sequence (Q9NPH3 21-367 R306A) above, with V224A, A286R counted along it

[7] = molecular target: Fc-fused IL-1RAcP Y249A (Homo sapiens, UniProt Q9NPH3, Y249A)
Chain of Fc-fused IL-1RAcP Y249A (Q9NPH3 21-367 Y269A): as the sequence (Q9NPH3 21-367 R306A) above, with Y249A, A286R counted along it

Chain of IL-1 receptor accessory protein (IL-1RAcP) ectodomain (Q9NPH3 21-367): as the sequence (Q9NPH3 21-367 R306A) above, with A286R counted along it

Kd [1]: 0.141 nM
koff [1]: 0.000225 s⁻¹
Kd [2]: 0.118 nM
binding result [3]: no binding (tested: 1.25nM to 20nM)
B1: 3G5 monoclonal antibody (hIgG1 with Fc-silent LALA mutations) (antibody, V domains shown)
VH: EVQLVESGGVLVKPGGSLKLSCAASGFTFSDYAMSWVRQTPEKRLEWVATITDGGSYAYYTDDVKGRFTVSRDNARNNLFLQMSHLRSEDTGIYYCSRDRWPYYFDFWGRGTTLTVSS
VL: DIQMTQSPTSLSVSVGETVTITCRISENIYSNLAWYQQKEGKSPQLLVYAATKLADGVPSRFSGSGSGTQYSLKINSLQSEDFGNYYCQHFWTTPRTFGGGTKVEIK

ΔΔG (change in binding free energy against wild-type IL-1RacP-Fc) [4]: 0.3 kcal/mol
ΔΔG (change in binding free energy against wild-type IL-1RacP-Fc) [5]: 2.4 kcal/mol
ΔΔG (change in binding free energy against wild-type IL-1RacP-Fc) [6]: 1.3 kcal/mol
ΔΔG (change in binding free energy against wild-type IL-1RacP-Fc) [7]: 1.85 kcal/mol
B2: 3G5 Fab (Fab, V domains shown)
VH: B1 VH
VL: B1 VL
